Paper PMC2770664
Like-named read-outs stand apart in the source and are kept apart here.

T1: HMO2 (NHP10) (Saccharomyces cerevisiae, UniProt Q03435 1-203)
T1 sequence: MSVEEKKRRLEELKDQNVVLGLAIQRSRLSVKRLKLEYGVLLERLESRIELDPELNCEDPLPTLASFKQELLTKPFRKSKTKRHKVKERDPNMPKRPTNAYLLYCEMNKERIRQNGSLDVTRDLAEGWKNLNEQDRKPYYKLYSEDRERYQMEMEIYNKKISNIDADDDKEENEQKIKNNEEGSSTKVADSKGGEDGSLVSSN


How the values were obtained:
HMO2 (NHP10) [1] = molecular target: T1, HMO2 (NHP10); experiment: EMSA
HMO2 (NHP10) [2] = molecular target: T1, HMO2 (NHP10); experiment: EMSA; remark: listed apart in the source

Binder | binding result (HMO2 (NHP10) [1]) | binding result (HMO2 (NHP10) [2])
50 bp duplex (dsDNA) DNA 1: TTCAATCCCCGTCTGTCCCCCGATCCCCTGCTCGTAGGCGTGCTTGACCG DNA 2: CGGTCAAGCACGCCTACGAGCAGGGGATCGGGGGACAGACGGGGATTGAA | no binding | 
50 bp duplex with tandem AA and CT loops (dsDNA) DNA 1: ACAGTGGAGTAGGCTACACCTACTCTTTGTAAGAATTTTGCAAAAAGTAC DNA 2: GTACTTTTTGCAAAATTCAAACAAAGAGTTCGTGTAGCCTACTCCACTGT |  | binds
